The target in data set [1] is T1, MutS (Escherichia coli, UniProt P23909 P23909:1-853).
T1 sequence: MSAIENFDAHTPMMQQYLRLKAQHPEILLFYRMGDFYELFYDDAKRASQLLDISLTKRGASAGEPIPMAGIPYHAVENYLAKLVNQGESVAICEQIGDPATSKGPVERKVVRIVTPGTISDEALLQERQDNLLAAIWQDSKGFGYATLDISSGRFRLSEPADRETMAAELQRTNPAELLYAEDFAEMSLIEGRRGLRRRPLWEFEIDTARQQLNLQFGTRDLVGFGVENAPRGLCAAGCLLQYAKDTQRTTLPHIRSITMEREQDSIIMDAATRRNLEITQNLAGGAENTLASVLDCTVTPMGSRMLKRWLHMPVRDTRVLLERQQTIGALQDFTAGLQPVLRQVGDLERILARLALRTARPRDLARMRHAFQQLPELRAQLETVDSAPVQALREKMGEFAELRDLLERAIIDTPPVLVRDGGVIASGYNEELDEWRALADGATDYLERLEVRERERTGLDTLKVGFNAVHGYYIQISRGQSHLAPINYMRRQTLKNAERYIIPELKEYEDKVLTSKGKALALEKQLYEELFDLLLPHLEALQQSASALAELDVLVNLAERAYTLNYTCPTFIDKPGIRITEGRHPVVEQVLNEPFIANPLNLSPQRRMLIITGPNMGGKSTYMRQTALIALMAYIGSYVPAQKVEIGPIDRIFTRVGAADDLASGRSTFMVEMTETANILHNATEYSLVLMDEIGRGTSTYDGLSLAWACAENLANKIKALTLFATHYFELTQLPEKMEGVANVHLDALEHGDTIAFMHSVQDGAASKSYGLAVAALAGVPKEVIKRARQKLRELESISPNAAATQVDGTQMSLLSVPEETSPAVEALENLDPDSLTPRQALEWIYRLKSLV
The data set is described as follows: immobilized MutS. The note with it: tags: immobilized on nitrocellulose, PVDF, nylon or magnetic beads, label: 5' biotin on first strand. The protocol: (§1) Immobilization of MutS on Solid Supports and Biotin Detection Assay (a) Nitrocellulose A nitrocellulose sheet (0.45 μm, Schleicher and Schull, BA85) was pre-wet by floating in reaction buffer (20 mM Tris HCl, pH 7.6; 5 mM MgCl_2, 0.1 mM DTT, 0.01 mM EDTA). MutS (500 ng/well) in reaction buffer was bound to the nitrocellulose in a 48 well slot blotting apparatus (Hoefer Scientific Instruments) over 3 sheets of blotting paper (Schleicher and Schull GB002). Reaction buffer alone was added to "no MutS" wells. After 20 min. at room temperature, nitrocellulose was blocked with 200 μl/well of 3% horse radish peroxidase (HRP)-free bovine serum albumin (BSA). After 1 hour, excess blocking solution was pulled through with vacuum and DNA (1 ng and 10 ng) was added in 20 μl reaction buffer containing 3% BSA. After 30 min. at room temperature, wells were washed 5 times with 100 μl reaction buffer. The wash fluids were decanted rather than pulled through with vacuum.
(§2) The presence of biotin-labeled DNA bound on the nitrocellulose sheet was detected by visualizing the binding of streptavidin to biotin. 100 μl streptavidin-conjugated HRP (0.05 μg/ml in reaction buffer+BSA) was added to each well. After 20 min. at room temperature, any remaining solution was decanted and the wells washed 5 times with 100 μl reaction buffer as above.

Data set [2] concerns the target T1, MutS. Nature of the data set: immobilized MutS. To be noted: tags: immobilized on nitrocellulose, PVDF, nylon or magnetic beads, label: biotin. The protocol: as §1
DNA was prepared as described in the Examples above. 500 ng *E. coli* MutS was bound to nitrocellulose as described above and the experiment carried out as in the previous Examples. Self-annealed single stranded triplet repeat sequences of CGG and CTG formed double-stranded mismatch-containing DNA duplexes which were recognized by immobilized MutS.

Data set [3] has as its target T1, MutS. Nature of the data set: immobilized MutS; C//T less well detected than T//C. The note with it: tags: immobilized on nitrocellulose, PVDF, nylon or magnetic beads; label: 5' biotin on first strand; C//T mismatch. How it is done:
as §1, §2

The target in data set [4] is T1, MutS. The data set is described as follows: immobilized MutS; strong signal. The note with it: tags: immobilized on nitrocellulose, PVDF, nylon or magnetic beads; label: 5' biotin on first strand; G//G mismatch. How it is done:
as §1, §2

The target of data set [5] is T1, MutS. Nature of the data set: filter; soluble MutS, 1 or 10 ng DNA; 1.8-fold at 0.1 ng. To be noted: tags: immobilized on nitrocellulose, PVDF, nylon or magnetic beads; label: 5' biotin on first strand; G//T mismatch. The protocol:
The binding of ^32P-labeled heteroduplexes to MutS in solution was tested in a standard filter binding assay essentially as described by Jiricny, J. et al., Nucl. Acids Res. 16:7843–7853 (1988). The oligonucleotides were labeled as above and annealed with a 10-fold excess of unlabeled "complementary" oligonucleotides to yield a homoduplex and a heteroduplex containing a single G//T mismatch. For this assay, 500 ng of MutS in reaction buffer (20 µl) was incubated for 30 minutes at room temperature with the two types of duplexes. The mixture was spotted onto pre-wet nitrocellulose filters, which were then washed 5 times with 2 ml reaction buffer by vacuum filtration and dried at 80° C. for 15 minutes. Each filter was placed in 3 ml scintillation fluid and the radioactivity determined by scintillation counting. Background cpm (no MutS) were subtracted from the cpm bound by MutS. Means of duplicate or triplicate determinations are shown below.

Data set [6] addresses T1, MutS. The data set is described as follows: immobilized MutS, 1-10 ng; detected equally to G//T. The note with it: tags: immobilized on nitrocellulose, PVDF, nylon or magnetic beads; label: 5' biotin on first strand; T//G mismatch. How it is done: as §1, §2
The mark [7] stands for this setting: self-annealed duplex with mismatches.

Positions count from the first letter of the chain named.

B1: A//G mismatch 30mer (dsDNA)
DNA 1: GCACCTGACTCCTGAGGAGAAGTCTGCCGT
DNA 2: ACGGCAGACTTCTCCGCAGGAGTCAGGTGC
For B1, the binding result with MutS [1] (A//G mismatch) was “binds”.

B2: (CCG)10 (ssDNA)
DNA: CCGCCGCCGCCGCCGCCGCCGCCGCCGCCG
As to B2, the binding result with MutS [2] is given as “no binding”.

B3: (CTG)10 (structured_DNA)
DNA: CTGCTGCTGCTGCTGCTGCTGCTGCTGCTG
With B3, the binding result with MutS [2] (setting [7]) is given as “binds”.

B4: T//T mismatch 30mer (dsDNA)
DNA 1: B1 DNA 1 with A15T
DNA 2: B1 DNA 2 with G16T
For the molecule B4, in the data set with MutS [1] (T//T mismatch), the binding result is “binds”.

B5: C//T mismatch 30mer (dsDNA)
DNA 1: B1 DNA 1 with A15C
DNA 2: B1 DNA 2 with G16T
In the case of B5, the binding result with MutS [3] is “binds”.

B6: G//G mismatch 30mer (dsDNA)
DNA 1: B1 DNA 1 with A15G
DNA 2: B1 DNA 2
For the molecule B6, the binding result in the data set with MutS [4] is given as “binds”.

B7: (CGG)10 (structured_DNA)
DNA: CGGCGGCGGCGGCGGCGGCGGCGGCGGCGG
Take B7: the binding result with MutS [2] (setting [7]) was “binds”.

B8: A//C mismatch 30mer (dsDNA)
DNA 1: B1 DNA 1
DNA 2: B1 DNA 2 with G16C
Turning to B8, the binding result in the data set with MutS [1] (A//C mismatch) was “binds”.

B9: (CAG)10 (ssDNA)
DNA: CAGCAGCAGCAGCAGCAGCAGCAGCAGCAG
B9: the binding result with MutS [2] was “no binding”.

B10: G//T mismatch 30mer (dsDNA)
DNA 1: B1 DNA 1 with A15G
DNA 2: B1 DNA 2 with G16T
Consider B10, for which the binding signal with MutS [5] is 5.2 fold over G:C homoduplex.

B11: T//G mismatch 30mer (dsDNA)
DNA 1: B1 DNA 1 with A15T
DNA 2: B1 DNA 2
On to B11, for which the binding result in the data set with MutS [6] is listed as “binds”.

B12: A//A mismatch 30mer (dsDNA)
DNA 1: B1 DNA 1
DNA 2: B1 DNA 2 with G16A
Consider B12, for which, in the data set with MutS [1] (A//A mismatch), the binding result is given as “binds”.

B13: G//A mismatch 30mer (dsDNA)
DNA 1: B1 DNA 1 with A15G
DNA 2: B1 DNA 2 with G16A
For B13, the binding result with MutS [1] (G//A mismatch) is on record as “binds”.

The record behind these values is patent US6120992, “Use of immobilized mismatch binding protein for detection of mutations and polymorphisms, and allele identification in a diseased human” (ValiGene Corporation).
